This is an account of results in US20240254239A1 (LAEKNA THERAPEUTICS SHANGHAI, published 2024).

Holding throughout (test): direct ELISA on coated recombinant ECD (30 ng/well), HRP-conjugated secondary antibody, luminescence
One assay has as its target T1, human CD248 ECD (human, UniProt Q9HCU0 18-687).
T1 construct: extracellular domain; also called recombinant extracellular domain of CD248
T1 sequence (looked up): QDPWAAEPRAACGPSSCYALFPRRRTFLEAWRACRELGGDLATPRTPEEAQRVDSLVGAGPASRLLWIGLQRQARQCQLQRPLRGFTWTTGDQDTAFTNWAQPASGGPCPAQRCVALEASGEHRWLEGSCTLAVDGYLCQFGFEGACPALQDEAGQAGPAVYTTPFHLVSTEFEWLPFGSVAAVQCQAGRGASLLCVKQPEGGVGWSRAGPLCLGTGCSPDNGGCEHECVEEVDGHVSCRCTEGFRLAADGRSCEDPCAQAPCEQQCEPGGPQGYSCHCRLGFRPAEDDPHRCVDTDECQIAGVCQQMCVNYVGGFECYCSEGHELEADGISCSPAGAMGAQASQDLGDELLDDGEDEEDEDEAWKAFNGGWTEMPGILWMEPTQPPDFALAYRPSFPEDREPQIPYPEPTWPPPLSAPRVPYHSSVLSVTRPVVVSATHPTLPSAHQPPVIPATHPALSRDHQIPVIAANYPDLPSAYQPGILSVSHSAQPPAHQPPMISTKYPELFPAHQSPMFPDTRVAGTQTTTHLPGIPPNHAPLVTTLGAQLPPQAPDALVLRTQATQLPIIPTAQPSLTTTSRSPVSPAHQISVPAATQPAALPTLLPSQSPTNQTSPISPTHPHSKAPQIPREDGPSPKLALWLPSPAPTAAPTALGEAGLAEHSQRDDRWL
The procedure: (§1) Briefly, recombinant extracellular domain of PDGFRb, FAPα, ULBP1, uPAR, IGF1R, SIRPA, PD-L1, ANTXR1, CD248, or GPC3 (30 ng/well) was coated on white optiplate™-384 well HB plate. After overnight coating, standard direct ELISA assay was performed. Luminescence signal was detected after using secondary antibody with HRP conjugated. Binding activity of each antibody was determined based on dose dependent binding curve.

The target of a further assay is T2, human ANTXR1 ECD (human, UniProt Q9H6X2 33-321).
T2 construct: extracellular domain; also called recombinant extracellular domain of ANTXR1
T2 sequence (looked up): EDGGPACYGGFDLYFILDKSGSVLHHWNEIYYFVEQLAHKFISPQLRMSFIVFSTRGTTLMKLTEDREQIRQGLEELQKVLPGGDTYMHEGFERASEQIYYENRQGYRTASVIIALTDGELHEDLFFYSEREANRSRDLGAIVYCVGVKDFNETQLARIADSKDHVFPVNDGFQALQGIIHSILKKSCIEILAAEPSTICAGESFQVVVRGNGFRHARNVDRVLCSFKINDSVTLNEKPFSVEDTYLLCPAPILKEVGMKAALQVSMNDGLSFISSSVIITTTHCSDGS
As for the experimental part: as §1

The next assay concerns the target T3, human SIRPA ECD (human, UniProt P78324 31-373).
T3 construct: extracellular domain; also called recombinant extracellular domain of SIRPA
As for the experimental part:
as §1

For the next assay, the target named is T4, human uPAR ECD (human, UniProt Q03405 23-305, limits assumed).
T4 construct: extracellular domain; also called recombinant extracellular domain of uPAR
T4 sequence (Q03405 23-305 limits assumed): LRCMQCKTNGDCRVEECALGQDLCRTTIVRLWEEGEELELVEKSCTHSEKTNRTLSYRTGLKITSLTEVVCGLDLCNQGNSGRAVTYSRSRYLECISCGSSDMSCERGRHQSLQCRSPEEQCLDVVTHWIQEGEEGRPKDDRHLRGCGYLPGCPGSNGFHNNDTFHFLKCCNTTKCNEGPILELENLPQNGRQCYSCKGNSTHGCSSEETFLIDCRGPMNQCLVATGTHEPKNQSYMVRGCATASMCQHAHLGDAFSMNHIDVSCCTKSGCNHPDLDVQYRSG
As for the experimental part:
as §1

Residue numbers refer to the chain shown, from its start. Numbers in names are those of the source.

T3 sequence (P78324 31-373): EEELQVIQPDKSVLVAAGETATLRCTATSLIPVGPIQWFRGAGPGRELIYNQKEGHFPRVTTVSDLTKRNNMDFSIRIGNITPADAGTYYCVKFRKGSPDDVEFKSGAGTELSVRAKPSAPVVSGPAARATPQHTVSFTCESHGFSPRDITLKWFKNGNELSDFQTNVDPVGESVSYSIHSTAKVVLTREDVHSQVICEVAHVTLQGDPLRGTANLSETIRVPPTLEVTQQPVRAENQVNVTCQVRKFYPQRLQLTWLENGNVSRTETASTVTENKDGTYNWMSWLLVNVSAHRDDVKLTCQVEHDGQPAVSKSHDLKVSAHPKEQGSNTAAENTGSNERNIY

B1: α-CD248 2 mIgG2a S239D/1332E (antibody, V domains shown)
VH: QVQLQESGPGLVRPSQTLSLTCTASGYTFTDYVIHWVKQPPGRGLEWIGYINPYDDDTTYNQKFKGRVTMLVDTSSNTAYLRLSSVTAEDTAVYYCARRGNSYDGYFDYSMDYWGSGTPVTVSS
VL: DIQMTQSPSSLSASVGDRVTITCRASQNVGTAVAWLQQTPGKAPKLLIYSASNRYTGVPSRFSGSGSGTDYTFTISSLQPEDIATYYCQQYTNYPMYTFGQGTKVQIKR
notes: mIgG2a with S239D/I332E; also called α-CD248 2 mIgG2a S239D/I332E; exemplary anti-CD248 antibody (α-CD248 2)
The EC50 (read off the curve) is the concentration at which the effect is half-maximal. As to B1, the “EC50 (read off the curve)” value with human CD248 ECD was ~0.01 µg/mL.

B2: α-ANTXR1 1 mIgG2a S239D/1332E (antibody, V domains shown)
VH: QVQLVQSGAEVKKPGTSVKVSCKVPGYTFSSYAISWVRQAPGQGLEWMGGIIPIFGTTNYAQKFQGRVTITGEESTSTVYMELSSLRSEDTAVYYCARDTDYMFDYWGQGTLVTVSS
VL: SSELTQDPVVSVALGETVSITCQGDNLRDFYASWYQQKPGQAPLLVMYGKNRRPSGIPDRFSGSTSGNTLSLTITGAQAEDEADYYCSSRDNSKHVVFGGGTKVTVLG
notes: mIgG2a with S239D/I332E; also called α-ANTXR1 1 mIgG2a S239D/I332E; exemplary anti-ANTXR1 antibody (α-ANTXR1 1)
On to B2, for which the concentration for a half-maximal effect (EC50 (read off the curve)) in the assay with human ANTXR1 ECD is ~0.01 µg/mL.

B3: α-SIRPA 1 S239D/1332E (antibody, human IgG1, kappa, V domains shown)
VH: EVQLQQSGAELVKPGASVKLSCTTSGFNFKDMYIHWVKQRPQQGLEWIGRIDPENDDTKYDPKFQDKATITADTSSNTAYLQLSNLPSEDTAVYYCARGNYVHWGQGTLVTVSA
VL: DIVLTQSPASLAVSLGQRATISCRASESVQYYGTSLMQWYQQKPGQPPKLLIYAASNVESGVPARFSGSGSGTDFSLNIYPVEEDDIAMYFCQQSRRVWTFGGGTKLEIKR
notes: Chimeric: murine variable regions, hIgG1 constant region with S239D/I332E; also called α-SIRPA 1 S239D/I332E; exemplary anti-SIRPA antibody (α-SIRPA 1)
Turning to B3, the “EC50 (read off the curve)” value with human SIRPA ECD was ~300 pM.

B4: α-SIRPA 2 S239D/1332E (antibody, human IgG1, kappa, V domains shown)
VH: B3 VH with L20V, T24G, I34L, Q42E, D57S, I70L, S75A, L83I, N85S, P87T
VL: B3 VL with E59G, Y80H, S95T
notes: Chimeric: murine variable regions, hIgG1 constant region with S239D/I332E; also called α-SIRPA 2 S239D/I332E; exemplary anti-SIRPA antibody (α-SIRPA 2)
As to B4, the half-maximal effective concentration (EC50 (read off the curve)) in the assay with human SIRPA ECD was ~300 pM.

B5: α-SIRPA 3 S239D/1332E (antibody, human IgG1, kappa, V domains shown)
VH: EVQLQQSGAELVKPGASVKLSCTASGFNIKDSYMHWVKQRTEQGLEWIGRIDPEDGETKYAPKFQGKATITADTSSNTAYLQLTSLTSEDTAVYYCARRGFYWGQGTTLTVSS
VL: QIVLTQSPAIMSASPGEKVTLTCSASSSVSSSYLYWYQQKPGSSPKLWIYSTSNLASGVPARFSGSGSGTSYSLTISSMEAEDAASYFCYQWSTHPYTFGGGTKLEIKR
notes: Chimeric: murine variable regions, hIgG1 constant region with S239D/I332E; also called α-SIRPA 3 S239D/I332E; exemplary anti-SIRPA antibody (α-SIRPA 3)
B5: in the assay with human SIRPA ECD, the “EC50 (read off the curve)” value was ~300 pM.

B6: α-uPAR 1 S239D/1332E (antibody, human IgG1, kappa, V domains shown)
VH: QVQLVESGGGVVQPGRSLRLSCAASGFTFSSYGMHWVRQAPGKGLEWVAVIWYDGSNKYYADSVKGRFTISRDNSKNTLYLQMNSLRAEDTAVYYCARDQHIVVVTAILDYWGQGTLVTVSS
VL: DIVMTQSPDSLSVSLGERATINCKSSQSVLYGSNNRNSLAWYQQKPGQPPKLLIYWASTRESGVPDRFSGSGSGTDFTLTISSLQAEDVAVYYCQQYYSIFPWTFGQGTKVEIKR
notes: hIgG1 with S239D/I332E; also called α-uPAR 1 S239D/I332E; exemplary anti-uPAR antibody (α-uPAR 1)
In the case of B6, the “EC50 (read off the curve)” value with human uPAR ECD is ~0.03 µg/mL.
